Results: patent US20260167721A1 (ABLEXIS, published 2026)

B1: CD3 × CD33-BspAb51 (bispecific antibody)
chain 1: not shown
chain 2: EVQLVQSGAEVKKPGSSVKVSCKASGYTITDSNIHWVRQAPGQSLEWIGYIYPYNGGTDYNQKFKNRATLTVDNPTNTAYMELSSLRSEDTAFYYCVNGNPWLAYWGQGTLVTVSSASTKGPSVFPLAPSSKSTSGGTAALGCLVKDYFPEPVTVSWNSGALTSGVHTFPAVLQSSGLYSLSSVVTVPSSSLGTQTYICNVNHKPSNTKVDKRVEPKSCDKTHTCPPCPAPEFEGGPSVFLFPPKPKDTLMISRTPEVTCVVVDVSHEDPEVKFNWYVDGVEVHNAKTKPREEQYNSTYRVVSVLTVLHQDWLNGKEYKCKVSNKALPASIEKTISKAKGQPREPQVCTLPPSREEMTKNQVSLSCAVKGFYPSDIAVEWESNGQPENNYKTTPPVLDSDGSFFLVSKLTVDKSRWQQGNVFSCSVMHEALHNRFTQKSLSLSPGK
chain 3: DIQLTQSPSTLSASVGDRVTITCRASESLDNYGIRFLTWFQQKPGKAPKLLMYAASNQGSGVPSRFSGSGSGTEFTLTISSLQPDDFATYYCQQTKEVPWSFGQGTKVEVKRTVAAPSVFIFPPSDEQLKSGTASVVCLLNNFYPREAKVQWKVDNALQSGNSQESVTEQDSKDSTYSLSSTLTLSKADYEKHKVYACEVTHQGLSSPVTKSFNRGEC
B2: CD3 × CD33-BspAb37 (bispecific antibody)
chain 1: not shown
chain 2: EVQLVQSGAEVKKPGSSVKVSCKASGYTITDSNIHWVRQAPGQSLEWIGYIYPYNGGTDYNQKFKNRATLTVDNPTNTAYMELSSLRSEDTAFYYCVNGNPWLAYWGQGTLVTVSSASTKGPSVFPLAPSSKSTSGGTAALGCLVKDYFPEPVTVSWNSGALTSGVHTFPAVLQSSGLYSLSSVVTVPSSSLGTQTYICNVNHKPSNTKVDKRVEPKSCDKTHTCPPCPAPEFEGGPSVFLFPPKPKDTLMISRTPEVTCVVVDVSHEDPEVKFNWYVDGVEVHNAKTKPREEQYNSTYRVVSVLTVLHQDWLNGKEYKCKVSNKALPASIEKTISKAKGQPREPQVCTLPPSREEMTKNQVSLSCAVKGFYPSDIAVEWESNGQPENNYKTTPPVLDSDGSFFLVSKLTVDKSRWQQGNVFSCSVMHEALHNRFTQKSLSLSPGK
chain 3: DIQLTQSPSTLSASVGDRVTITCRASESLDNYGIRFLTWFQQKPGKAPKLLMYAASNQGSGVPSRFSGSGSGTEFTLTISSLQPDDFATYYCQQTKEVPWSFGQGTKVEVKRTVAAPSVFIFPPSDEQLKSGTASVVCLLNNFYPREAKVQWKVDNALQSGNSQESVTEQDSKDSTYSLSSTLTLSKADYEKHKVYACEVTHQGLSSPVTKSFNRGEC
B3: CD3 × CD33-BspAb50 (bispecific antibody)
chain 1: not shown
chain 2: EVQLVQSGAEVKKPGSSVKVSCKASGYTITDSNIHWVRQAPGQSLEWIGYIYPYNGGTDYNQKFKNRATLTVDNPTNTAYMELSSLRSEDTAFYYCVNGNPWLAYWGQGTLVTVSSASTKGPSVFPLAPSSKSTSGGTAALGCLVKDYFPEPVTVSWNSGALTSGVHTFPAVLQSSGLYSLSSVVTVPSSSLGTQTYICNVNHKPSNTKVDKRVEPKSCDKTHTCPPCPAPEFEGGPSVFLFPPKPKDTLMISRTPEVTCVVVDVSHEDPEVKFNWYVDGVEVHNAKTKPREEQYNSTYRVVSVLTVLHQDWLNGKEYKCKVSNKALPASIEKTISKAKGQPREPQVCTLPPSREEMTKNQVSLSCAVKGFYPSDIAVEWESNGQPENNYKTTPPVLDSDGSFFLVSKLTVDKSRWQQGNVFSCSVMHEALHNRFTQKSLSLSPGK
chain 3: DIQLTQSPSTLSASVGDRVTITCRASESLDNYGIRFLTWFQQKPGKAPKLLMYAASNQGSGVPSRFSGSGSGTEFTLTISSLQPDDFATYYCQQTKEVPWSFGQGTKVEVKRTVAAPSVFIFPPSDEQLKSGTASVVCLLNNFYPREAKVQWKVDNALQSGNSQESVTEQDSKDSTYSLSSTLTLSKADYEKHKVYACEVTHQGLSSPVTKSFNRGEC
B4: CD3 × CD33-BspAb52 (bispecific antibody)
chain 1: not shown
chain 2: EVQLVQSGAEVKKPGSSVKVSCKASGYTITDSNIHWVRQAPGQSLEWIGYIYPYNGGTDYNQKFKNRATLTVDNPTNTAYMELSSLRSEDTAFYYCVNGNPWLAYWGQGTLVTVSSASTKGPSVFPLAPSSKSTSGGTAALGCLVKDYFPEPVTVSWNSGALTSGVHTFPAVLQSSGLYSLSSVVTVPSSSLGTQTYICNVNHKPSNTKVDKRVEPKSCDKTHTCPPCPAPEFEGGPSVFLFPPKPKDTLMISRTPEVTCVVVDVSHEDPEVKFNWYVDGVEVHNAKTKPREEQYNSTYRVVSVLTVLHQDWLNGKEYKCKVSNKALPASIEKTISKAKGQPREPQVCTLPPSREEMTKNQVSLSCAVKGFYPSDIAVEWESNGQPENNYKTTPPVLDSDGSFFLVSKLTVDKSRWQQGNVFSCSVMHEALHNRFTQKSLSLSPGK
chain 3: DIQLTQSPSTLSASVGDRVTITCRASESLDNYGIRFLTWFQQKPGKAPKLLMYAASNQGSGVPSRFSGSGSGTEFTLTISSLQPDDFATYYCQQTKEVPWSFGQGTKVEVKRTVAAPSVFIFPPSDEQLKSGTASVVCLLNNFYPREAKVQWKVDNALQSGNSQESVTEQDSKDSTYSLSSTLTLSKADYEKHKVYACEVTHQGLSSPVTKSFNRGEC
B5: CD3 × CD33-BspAb61 (bispecific antibody)
chain 1: NFMLTQPHSVSESPGKTVTISCTRSSGSIASNYVQWYQQRPGSSPTTVIYEDNQRPSGVPDRFSGSIDSSSNSASLTISGLKTEDEADYYCQSFDNSNRVFGCGTKLTVLGGGGSGGGGSGGGGSGGGGSEVQLVESGGGLVKPGGSLRLSCAASGFTFSRYSMNWVRQAPGKCLKWVSSISSSGSYKYYADSVKGRFTISRDNAKNSLYLQMNSLRAEDTAVYYCAREPPTLGMDYWGQGTLVTVSSDKTHTCPPCPAPEFEGGPSVFLFPPKPKDTLMISRTPEVTCVVVDVSHEDPEVKFNWYVDGVEVHNAKTKPREEQYNSTYRVVSVLTVLHQDWLNGKEYKCKVSNKALPASIEKTISKAKGQPREPQVYTLPPCREEMTKNQVSLWCLVKGFYPSDIAVEWESNGQPENNYKTTPPVLDSDGSFFLYSKLTVDKSRWQQGNVFSCSVMHEALHNHYTQKSLSLSPGK
chain 2: EVQLVQSGAEVKKPGSSVKVSCKASGYTITDSNIHWVRQAPGQSLEWIGYIYPYNGGTDYNQKFKNRATLTVDNPTNTAYMELSSLRSEDTAFYYCVNGNPWLAYWGQGTLVTVSSASTKGPSVFPLAPSSKSTSGGTAALGCLVKDYFPEPVTVSWNSGALTSGVHTFPAVLQSSGLYSLSSVVTVPSSSLGTQTYICNVNHKPSNTKVDKRVEPKSCDKTHTCPPCPAPEFEGGPSVFLFPPKPKDTLMISRTPEVTCVVVDVSHEDPEVKFNWYVDGVEVHNAKTKPREEQYNSTYRVVSVLTVLHQDWLNGKEYKCKVSNKALPASIEKTISKAKGQPREPQVCTLPPSREEMTKNQVSLSCAVKGFYPSDIAVEWESNGQPENNYKTTPPVLDSDGSFFLVSKLTVDKSRWQQGNVFSCSVMHEALHNRFTQKSLSLSPGK
chain 3: DIQLTQSPSTLSASVGDRVTITCRASESLDNYGIRFLTWFQQKPGKAPKLLMYAASNQGSGVPSRFSGSGSGTEFTLTISSLQPDDFATYYCQQTKEVPWSFGQGTKVEVKRTVAAPSVFIFPPSDEQLKSGTASVVCLLNNFYPREAKVQWKVDNALQSGNSQESVTEQDSKDSTYSLSSTLTLSKADYEKHKVYACEVTHQGLSSPVTKSFNRGEC
B6: CD3 × CD33-BspAb62 (bispecific antibody)
chain 1: NFMLTQPHSVSESPGKTVTISCTRSSGSIASNYVQWYQQRPGSSPTTVIYEDNQRPSGVPDRFSGSIDSSSNSASLTISGLKTEDEADYYCQSYDSSNHVFGCGTKLTVLGGGGSGGGGSGGGGSGGGGSEVQLVESGGGLVQPGGSLRLSCAASGFTFSRYSMNWVRQAPGKCLEWVSYISSSSSSIYYADSVKGRFTISRDNAKNSLYLQMNSLRDEDTAVYYCARDRRATLDYWGQGTLVTVSSDKTHTCPPCPAPEFEGGPSVFLFPPKPKDTLMISRTPEVTCVVVDVSHEDPEVKFNWYVDGVEVHNAKTKPREEQYNSTYRVVSVLTVLHQDWLNGKEYKCKVSNKALPASIEKTISKAKGQPREPQVYTLPPCREEMTKNQVSLWCLVKGFYPSDIAVEWESNGQPENNYKTTPPVLDSDGSFFLYSKLTVDKSRWQQGNVFSCSVMHEALHNHYTQKSLSLSPGK
chain 2: EVQLVQSGAEVKKPGSSVKVSCKASGYTITDSNIHWVRQAPGQSLEWIGYIYPYNGGTDYNQKFKNRATLTVDNPTNTAYMELSSLRSEDTAFYYCVNGNPWLAYWGQGTLVTVSSASTKGPSVFPLAPSSKSTSGGTAALGCLVKDYFPEPVTVSWNSGALTSGVHTFPAVLQSSGLYSLSSVVTVPSSSLGTQTYICNVNHKPSNTKVDKRVEPKSCDKTHTCPPCPAPEFEGGPSVFLFPPKPKDTLMISRTPEVTCVVVDVSHEDPEVKFNWYVDGVEVHNAKTKPREEQYNSTYRVVSVLTVLHQDWLNGKEYKCKVSNKALPASIEKTISKAKGQPREPQVCTLPPSREEMTKNQVSLSCAVKGFYPSDIAVEWESNGQPENNYKTTPPVLDSDGSFFLVSKLTVDKSRWQQGNVFSCSVMHEALHNRFTQKSLSLSPGK
chain 3: DIQLTQSPSTLSASVGDRVTITCRASESLDNYGIRFLTWFQQKPGKAPKLLMYAASNQGSGVPSRFSGSGSGTEFTLTISSLQPDDFATYYCQQTKEVPWSFGQGTKVEVKRTVAAPSVFIFPPSDEQLKSGTASVVCLLNNFYPREAKVQWKVDNALQSGNSQESVTEQDSKDSTYSLSSTLTLSKADYEKHKVYACEVTHQGLSSPVTKSFNRGEC

Biological target: recombinant CD3 proteins
Test: Octet (BLI), bispecific antibody against recombinant CD3 proteins

| Binder | Kd | Response | koff | kon |
| --- | --- | --- | --- | --- |
| B1 | 74 nM | 0.26 | 0.00232 s⁻¹ | 31400 M⁻¹ s⁻¹ |
| B2 | 213 nM | 0.34 | 0.00336 s⁻¹ | 15800 M⁻¹ s⁻¹ |
| B3 | 125 nM | 0.33 | 0.00262 s⁻¹ | 21000 M⁻¹ s⁻¹ |
| B4 | 19.5 nM | 0.07 | 0.00751 s⁻¹ | 386000 M⁻¹ s⁻¹ |
| B5 | 7.62 nM | 0.74 | 0.00187 s⁻¹ | 245000 M⁻¹ s⁻¹ |
| B6 | 85.9 nM | 0.25 | 0.0474 s⁻¹ | 552000 M⁻¹ s⁻¹ |
